{"source": "paper PMC9784774", "about": "(2022)", "binders": {"B1": {"name": "MAb 9I6 (antibody, V domains shown)", "VH": "EVQLVQSGAEVKKPGESLKISCRESGDTFPAYWIAWVRQMPGKGLEWMGIIYPIDSETTYSPSFQGQVTISADKSINTAYLQWSSLKASDSAIYYCARGTSTGLREAFHIWGQGTMVTVSS", "VL": "DVVMTQSPLSLAVTLGQPAYISCRSSQSLGYSDGNTYLNWFQQRPGQSPRRLIYEVSNRDSGVPDRFSGSGSGTDFTLKISRVEAEDVGTYYCMQGTHWPPMCSFGQGTKLEIK"}}, "target": "T1, recombinant gH/gL/UL128/UL130/UL131A pentamer (wild type) (human cytomegalovirus | human …)", "T1 chain 1": "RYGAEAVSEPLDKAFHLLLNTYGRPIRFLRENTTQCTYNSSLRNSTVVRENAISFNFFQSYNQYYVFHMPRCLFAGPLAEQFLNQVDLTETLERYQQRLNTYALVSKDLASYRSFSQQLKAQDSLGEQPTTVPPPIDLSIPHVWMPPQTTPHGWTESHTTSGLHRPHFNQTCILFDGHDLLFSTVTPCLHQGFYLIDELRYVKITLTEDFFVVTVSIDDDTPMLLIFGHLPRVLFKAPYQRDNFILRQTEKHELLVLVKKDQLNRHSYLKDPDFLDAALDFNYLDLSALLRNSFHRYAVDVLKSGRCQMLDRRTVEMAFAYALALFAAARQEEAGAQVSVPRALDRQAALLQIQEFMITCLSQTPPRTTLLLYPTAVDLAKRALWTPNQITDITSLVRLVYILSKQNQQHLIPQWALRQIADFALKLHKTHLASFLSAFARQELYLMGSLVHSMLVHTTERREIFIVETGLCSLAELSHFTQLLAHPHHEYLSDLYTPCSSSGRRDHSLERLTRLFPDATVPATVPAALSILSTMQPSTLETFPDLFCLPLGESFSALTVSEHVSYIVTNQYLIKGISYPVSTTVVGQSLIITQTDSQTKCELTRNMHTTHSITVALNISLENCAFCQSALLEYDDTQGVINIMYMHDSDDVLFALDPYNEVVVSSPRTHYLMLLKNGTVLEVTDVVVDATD", "T1 chain 2": "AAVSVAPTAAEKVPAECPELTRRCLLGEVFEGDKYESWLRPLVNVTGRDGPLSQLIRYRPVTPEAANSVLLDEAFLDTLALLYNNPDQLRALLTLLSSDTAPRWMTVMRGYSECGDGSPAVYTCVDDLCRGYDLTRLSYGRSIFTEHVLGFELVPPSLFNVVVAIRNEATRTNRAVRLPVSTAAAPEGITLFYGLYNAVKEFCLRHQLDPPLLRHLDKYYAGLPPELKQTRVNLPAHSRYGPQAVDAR", "T1 chain 3": "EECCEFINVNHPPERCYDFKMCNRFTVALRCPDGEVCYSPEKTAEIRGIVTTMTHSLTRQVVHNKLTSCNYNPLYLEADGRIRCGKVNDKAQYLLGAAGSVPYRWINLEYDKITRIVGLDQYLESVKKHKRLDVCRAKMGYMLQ", "T1 chain 4": "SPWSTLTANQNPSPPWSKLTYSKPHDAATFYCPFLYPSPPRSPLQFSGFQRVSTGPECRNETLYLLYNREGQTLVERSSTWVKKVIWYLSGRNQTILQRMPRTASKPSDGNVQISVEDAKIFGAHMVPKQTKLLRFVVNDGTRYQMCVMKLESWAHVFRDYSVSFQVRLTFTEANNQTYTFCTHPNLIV", "T1 chain 5": "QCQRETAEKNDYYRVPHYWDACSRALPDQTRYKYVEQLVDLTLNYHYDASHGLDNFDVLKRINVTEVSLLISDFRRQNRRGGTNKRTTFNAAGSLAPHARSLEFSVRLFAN", "test": "SPR"}
{"binder": "B1", "values": [{"measurement": "koff", "value": 0.000151, "unit": "s⁻¹"}]}
